Reference: patent US20140363865A1, “SUPPLEMENTATION OF FATTY ACIDS FOR IMPROVING ALCOHOL PRODUCTIVITY” (BUTAMAX ADVANCED BIOFUELS LLC, priority 2010, published 2014)

Experiments:
S. cerevisiae culture = conditions: cerulenin added to the culture; cited from earlier work
[1] = Lipase screening for treatment of ground whole corn kernels prior to liquefaction (Example 25); type: biochemical; conditions: 55° C., pH 5.8
Experimental: Seven reaction mixtures containing tap water (67.9 g) and ground whole corn kernels (35.1 g wet wt., ground with 1.0 mm screen using a hammer mill) at pH 5.8 were stirred at 55° C. in stoppered flasks. A 3-mL sample (t=0 h) was removed from each flask and the sample immediately frozen on dry ice, then ca. 0.5 mL of 10 mM sodium phosphate buffer (pH 7.0) containing 1 mg total soluble protein (10 ppm final concentration in reaction mixture) of one of the following lipases (Novozymes) were added to one of each flask: Lipolase® 100 L, Lipex® 100L, Lipoclean® 2000T, Lipozyme® CALB L, Novozyme® CALA L, and Palatase 20000L; no lipase was added to the seventh flask. The resulting mixtures were stirred at 55° C. in stoppered flasks, and 3-mL samples were withdrawn from each reaction mixture at 1 h, 2 h, 4 h and 6 h and immediately frozen in dry ice until analyzed for wt % lipid (derivatized as fatty acid methyl esters, FAME) and for wt % free fatty acid (FFA, derivatized as fatty acid methyl esters, FAME) according to the method described by Reference 1, and the percent free fatty acid content was calculated relative to the total combined concentrations of lipid and free fatty acid was determined for each sample.

[2] = Lipase treatment of ground whole corn kernels prior to liquefaction, then mixing with oleyl alcohol (Example 24); type: biochemical
Experimental: Tap water (1377.6 g) was added into each of two jacketed 2-L resin kettles, then 711.9 g wet weight (625.8 g dry weight) of ground whole corn kernels (1.0 mm screen on hammer mill) was added to each kettle with stirring. Each mixture was heated to 55° C. with stirring at 300 rpm, and the pH adjusted to 5.8 with 2 N sulfuric acid. To each mixture was added 21.0 g of an aqueous solution containing 1.008 g of Spezyme®-FRED L (Genencor®, Palo Alto, Calif.). To one mixture was then added 10.5 mL of aqueous solution of Lipolase® 100L Solution (21 mg total soluble protein, 10 ppm lipase final concentration) and to the second mixture was added 1.05 mL of aqueous solution of Lipolase® 100L Solution (2.1 mg total soluble protein, 1.0 ppm lipase final concentration). Samples were withdrawn from each reaction mixture at 1 h, 2 h, 4 h and 6 h at 55° C., then the temperature of the mixture was increased to 85° C. with stirring at 600 rpm and pH 5.8, and a sample was taken when the mixture first reached 85° C. After 120 minutes at 85° C., a sample was taken and the mixtures were cooled to 50° C. and final samples of the resulting liquefied corn mash were transferred to 50-mL polypropylene centrifuge tubes; all samples were stored frozen at −80° C.
In two separate reactions, a 50 g sample of the 10 ppm lipase-treated liquefied corn mash or a 55 g sample of the 1.0 ppm lipase-treated liquefied corn mash prepared as described above was mixed with oleyl alcohol (OA) (38 g) at 30° C. for 20 h, then the liquefied mash and OA in each reaction mixture were separated by centrifugation and each phase analyzed for wt % lipid (derivatized as fatty acid methyl esters, FAME) and for wt % free fatty acid (FFA, derivatized as fatty acid methyl esters, FAME) according to the method described by Reference 1. The % FFA in the OA phase of the liquefied mash/OA mixture prepared using heat inactivation of 10 ppm lipase during liquefaction was 98% at 20 h, compared to only 62% FFA in the OA phase of the liquefied mash/OA mixture prepared using heat inactivation of 1.0 ppm lipase during liquefaction.

[3] = Heat inactivation of lipase in lipase-treated liquefied corn mash mixed with oleyl alcohol (Example 22); type: biochemical
Experimental: Tap water (918.4 g) was added to a jacketed 2-L resin kettle, then 474.6 g wet weight (417.6 g dry weight) of ground whole corn kernels (1.0 mm screen on hammer mill) was added with stirring. The mixture was heated to 55° C. with stirring at 300 rpm, and the pH adjusted to 5.8 with 2 N sulfuric acid. To the mixture was added 14.0 g of an aqueous solution containing 0.672 g of Spezyme®-FRED L (Genencor®, Palo Alto, Calif.), and the temperature of the mixture increased to 85° C. with stirring at 600 rpm and pH 5.8. After 120 minutes at 85° C., the mixture was cooled to 50° C. and 45.0 mL aliquots of the resulting liquefied corn mash were transferred to 50-mL polypropylene centrifuge tubes and stored frozen at −80° C.
In a first reaction, 50 g of liquefied corn mash prepared as described above was mixed with 10 ppm Lipolase® 100 L (Novozymes) for 6 h at 55° C. and with no inactivation of lipase at 85° C. for 1 h, the mixture was cooled to 30° C. In a second reaction, 50 g of liquefied corn mash was mixed with 10 ppm Lipolase® for 6 h at 55° C., then heated to 85° C. for 1 h (lipase inactivation), then cooled to 30° C. In a third reaction, 50 g of liquefied corn mash without added lipase was mixed for 6 h at 55° C., and with no heating at 85° C. for 1 h, the mixture was cooled to 30° C., 38 g of oleyl alcohol was added, and the resulting mixture stirred for 73 h at 30° C. In a fourth reaction, 50 g of liquefied corn mash without added lipase was mixed for 6 h at 55° C., then heated to 85° C. for 1 h, then cooled to 30° C. Each of the four reaction mixtures was sampled at 6 h, then 38 g of oleyl alcohol added, and the resulting mixtures stirred at 30° C. and sampled at 25 h and 73 h. Samples (both liquefied mash and oleyl alcohol (OA)) were analyzed for wt % lipid (derivatized as fatty acid methyl esters, FAME) and for wt % free fatty acid (FFA, derivatized as fatty acid methyl esters, FAME) according to the method described by Reference 1.

[4] = 0 h (sample before lipase addition)

For `C/C=C/C/C=C/CCC(=O)[C@H]1O[C@H]1C(N)=O` [Cerulenin, cerulenin], the “growth of S. cerevisiae culture” value (S. cerevisiae culture) is listed as “inhibition of the growth”.

B1: Palatase ® 20000 L: commercial lipase preparation available from Novozymes (protein, UniProt P19515 95-363, looked up)
Lipase: SIDGGIRAATSQEINELTYYTTLSANSYCRTVIPGATWDCIHCDATEDLKIIKTWSTLIYDTNAMVARGDSEKTIYIVFRGSSSIRNWIADLTFVPVSYPPVSGTKVHKGFLDSYGEVQNELVATVLDQFKQYPSYKVAVTGHSLGGATALLCALDLYQREEGLSSSNLFLYTQGQPRVGDPAFANYVVSTGIPYRRTVNERDIVPHLPPAAFGFLHAGEEYWITDNSPETVQVCTSDLETSDCSNSIVPFTSVLDHLSYFGINTGLCT
For B1, the “% FFA” value [1, 4] was 37%, the “% FFA” value ([1]; 1 h, 10 ppm lipase) was 49% and the “% FFA” value ([1]; 2 h, 10 ppm lipase) was 59%. The “% FFA” value ([1]; 4 h, 10 ppm lipase) was 62% and the “% FFA” value ([1]; 6 h, 10 ppm lipase) was 66%.

B2: Lipolase ® 100 L: commercial lipase preparation available from Novozymes (protein, UniProt O59952 23-291, looked up)
Lipase: EVSQDLFNQFNLFAQYSAAAYCGKNNDAPAGTNITCTGNACPEVEKADATFLYSFEDSGVGDVTGFLALDNTNKLIVLSFRGSRSIENWIGNLNFDLKEINDICSGCRGHDGFTSSWRSVADTLRQKVEDAVREHPDYRVVFTGHSLGGALATVAGADLRGNGYDIDVFSYGAPRVGNRAFAEFLTVQTGGTLYRITHTNDIVPRLPPREFGYSHSSPEYWIKSGTLVPVTRNDIVKIEGIDATGGNNQPNIPDIPAHLWYFGLIGTCL
In the case of B2, the “% FFA” value ([2]; 1.0 ppm lipase at 55° C., 1 h, pre-liquefaction) is reported as 54%, the “% FFA” value ([2]; 1.0 ppm lipase at 55° C., 2 h, pre-liquefaction) is reported as 51% and the “% FFA” value ([2]; 1.0 ppm lipase at 55° C., 4 h, pre-liquefaction) is reported as 58%. The “% FFA” value ([2]; 1.0 ppm lipase at 55° C., 6 h, pre-liquefaction) was 57%, the “% FFA” value ([2]; 1.0 ppm lipase, 0 h, 85° C., liq. mash) was 49% and the “% FFA” value ([2]; 1.0 ppm lipase, 2 h, 85° C., liq. mash) was 50%. The “% FFA” value ([2]; 1.0 ppm lipase, mix with OA, 20 h, 30° C., OA) was 62%, the “% FFA” value ([2]; 1.0 ppm lipase, mix with OA, 20 h, 30° C., liq. mash) was 20% and the “% FFA” value ([2]; 10 ppm lipase at 55° C., 1 h, pre-liquefaction) was 74%. The “% FFA” value ([2]; 10 ppm lipase at 55° C., 2 h, pre-liquefaction) was 77%, the “% FFA” value ([2]; 10 ppm lipase at 55° C., 4 h, pre-liquefaction) was 82% and the “% FFA” value ([2]; 10 ppm lipase at 55° C., 6 h, pre-liquefaction) was 87%. For the same molecule, the “% FFA” value ([2]; 10 ppm lipase, 0 h, 85° C., liq. mash) was 86%, the “% FFA” value ([2]; 10 ppm lipase, 2 h, 85° C., liq. mash) was 85% and the “% FFA” value ([2]; 10 ppm lipase, mix with OA, 20 h, 30° C., OA) was 98%. For the same molecule, the “% FFA” value ([2]; 10 ppm lipase, mix with OA, 20 h, 30° C., liq. mash) was 48%, the “% FFA” value [1, 4] was 33% and the “% FFA” value ([1]; 1 h, 10 ppm lipase) was 56%. The “% FFA” value ([1]; 2 h, 10 ppm lipase) was 74%, the “% FFA” value ([1]; 4 h, 10 ppm lipase) was 76% and the “% FFA” value ([1]; 6 h, 10 ppm lipase) was 79%. The “% FFA” value ([3]; 10 ppm active lipase, no 85° C. heat treatment, 6 h, liq. mash) was 89%, the “% FFA” value ([3]; 10 ppm active lipase, no 85° C. heat treatment, 25 h, OA) was 40% and the “% FFA” value ([3]; 10 ppm active lipase, no 85° C. heat treatment, 25 h, liq. mash) was 20%. The “% FFA” value ([3]; 10 ppm active lipase, no 85° C. heat treatment, 73 h, OA) was 21%, the “% FFA” value ([3]; 10 ppm active lipase, no 85° C. heat treatment, 73 h, liq. mash) was 18% and the “% FFA” value ([3]; 10 ppm inactive lipase, 85° C. heat treatment, 6 h, liq. mash) was 89%. For the same molecule, the “% FFA” value ([3]; 10 ppm inactive lipase, 85° C. heat treatment, 25 h, OA) was 99%, the “% FFA” value ([3]; 10 ppm inactive lipase, 85° C. heat treatment, 25 h, liq. mash) was 53% and the “% FFA” value ([3]; 10 ppm inactive lipase, 85° C. heat treatment, 73 h, OA) was 95%. For the same molecule, the “% FFA” value ([3]; 10 ppm inactive lipase, 85° C. heat treatment, 73 h, liq. mash) was 62%.
